Source: patent EP3988566A1

Legend:
[1] = target: amyloid beta 1-42 monomers (UniProt P05067); experiment: cell-based or functional assay
amyloid beta 1-42 fibers = amyloid beta 1-42 fibers (UniProt P05067); experiment: cell-based or functional assay
Chain of amyloid beta 1-42 fibers (P05067 672-713 limits assumed): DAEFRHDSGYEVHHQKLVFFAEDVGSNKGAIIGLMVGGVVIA

Chain of amyloid beta 1-42 monomers (P05067 672-713 limits assumed): as above

inhibition of Aβ1-42 aggregation, thioflavin T assay, antibody to Aβ1-42 molar ratio 1:10 [1]: 80.4%
inhibition of Aβ1-42 aggregation, thioflavin T assay, antibody to Aβ1-42 molar ratio 1:100 [1]: 30%
disaggregation of pre-aggregated Aβ1-42, thioflavin T assay, antibody to Aβ1-42 molar ratio 1:10 (amyloid beta 1-42 fibers): 31.9%
disaggregation of pre-aggregated Aβ1-42, thioflavin T assay, antibody to Aβ1-42 molar ratio 1:100 (amyloid beta 1-42 fibers): 23.9%
Substance: humanized anti-human amyloid beta monoclonal antibody hC2
